Reference: patent US20250295799A1, “ANTIBODY-DRUG CONJUGATES TARGETING GLYPICAN-3 AND METHODS OF USE” (Zymeworks BC Inc., priority 2022, published 2025)

What was measured:
[1] = molecular target: human glypican-3 (GPC3) (human) (UniProt P51654); assay: flow cytometry on JHH-5 cells (GPC3-mid)
[2] = molecular target: human glypican-3 (GPC3) (human) (UniProt P51654); assay: flow cytometry on JHH-7 cells (GPC3-high)
[3] = molecular target: human glypican-3 (GPC3) (human) (UniProt P51654); assay: cell-based or functional assay
[4] = molecular target: human glypican-3 (GPC3) (human) (UniProt P51654); assay: flow cytometry on JHH-7 cells; v21995 in PBS (not incubated in plasma), day 0
[5] = molecular target: human glypican-3 (GPC3) (human) (UniProt P51654); assay: flow cytometry on CHO-S cells transfected with human GPC3
[6] = molecular target: cynomolgus monkey glypican-3 (GPC3) (cynomolgus monkey); assay: flow cytometry on CHO-S cells transfected with cynomolgus GPC3
[7] = molecular target: human GPC3 on cells (human) (UniProt P51654); assay: flow cytometry, JHH-7 cells; negative control

| Kd [1] [nM] | Kd [2] [nM] | JHH-5 Internalization (MFI) [3] [MFI] | JHH-5 Internalization (MFI), Day 0 (in PBS) [3] [MFI] | JHH-7 Internalization (MFI) [3] [MFI] | JHH-7 Internalization (MFI), Day 0 (in PBS) [3] [MFI] | Bmax (MFI) [4] [MFI] | Kd [4] [nM] | Kd [5] [nM] | Kd [6] [nM] | Kd [7] [nM] | Substance |
| --- | --- | --- | --- | --- | --- | --- | --- | --- | --- | --- | --- |
| > 150 | > 47 | 399 | 506 | 265 | 4 | 309 | 37.7 | > 150 | > 150 |  | palivizumab (anti-RSV antibody), v21995 |
|  |  |  |  |  |  |  |  |  |  | > 60 | v22277 (palivizumab) (antibody) |
